Reference: publication PMC2756588

T1: Sla1-3, P32790
T1 sequence (P32790 344-424, looked up): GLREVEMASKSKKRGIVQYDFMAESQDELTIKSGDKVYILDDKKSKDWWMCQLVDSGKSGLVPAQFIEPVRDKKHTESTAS

T2: Boi1, P38041
T2 sequence (P38041 1-86, looked up): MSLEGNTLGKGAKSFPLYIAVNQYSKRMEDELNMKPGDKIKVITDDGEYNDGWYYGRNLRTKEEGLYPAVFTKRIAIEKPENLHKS

T3: Lsb3, P43603
T3 sequence (P43603 385-451, looked up): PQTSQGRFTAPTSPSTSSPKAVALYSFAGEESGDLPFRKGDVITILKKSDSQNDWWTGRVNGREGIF

T4: Pex13, P80667
T4 sequence (P80667 295-386, looked up): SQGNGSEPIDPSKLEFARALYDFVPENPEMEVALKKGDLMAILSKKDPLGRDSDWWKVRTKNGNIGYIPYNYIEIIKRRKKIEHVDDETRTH

T5: Abp1, P15891
T5 sequence (P15891 535-592, looked up): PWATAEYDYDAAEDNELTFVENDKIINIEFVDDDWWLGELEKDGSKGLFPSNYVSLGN

T6: Hse1, P38753
T6 sequence (P38753 208-285, looked up): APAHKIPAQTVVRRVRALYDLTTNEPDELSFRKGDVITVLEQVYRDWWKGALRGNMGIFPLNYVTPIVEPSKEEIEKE

T7: Pin3, Q06449
T7 sequence (Q06449 53-122, looked up): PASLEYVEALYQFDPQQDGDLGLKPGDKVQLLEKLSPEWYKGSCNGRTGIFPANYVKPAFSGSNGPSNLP

T8: Bud14, P27637
T8 sequence (P27637 247-328, looked up): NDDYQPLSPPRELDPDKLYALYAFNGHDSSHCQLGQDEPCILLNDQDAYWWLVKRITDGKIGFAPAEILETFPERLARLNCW

T9: Bzz1-1, P38822
T9 sequence (P38822 478-572, looked up): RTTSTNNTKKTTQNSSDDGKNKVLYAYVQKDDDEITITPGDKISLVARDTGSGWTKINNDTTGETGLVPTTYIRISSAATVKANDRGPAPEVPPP

T10: Bzz1-2, P38822
T10 sequence (P38822 568-633, looked up): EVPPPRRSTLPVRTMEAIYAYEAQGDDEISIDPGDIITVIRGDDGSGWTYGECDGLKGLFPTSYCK

T11: Fus1, P11710
T11 sequence (P11710 432-512, looked up): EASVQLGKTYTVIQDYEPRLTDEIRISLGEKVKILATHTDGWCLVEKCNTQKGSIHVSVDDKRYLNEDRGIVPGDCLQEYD

T12: Boi2, P39969
T12 sequence (P39969 32-116, looked up): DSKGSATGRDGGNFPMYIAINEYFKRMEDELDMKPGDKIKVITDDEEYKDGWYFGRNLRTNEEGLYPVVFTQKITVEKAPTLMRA

T13: Bbc1, P47068
T13 sequence (P47068 1-78, looked up): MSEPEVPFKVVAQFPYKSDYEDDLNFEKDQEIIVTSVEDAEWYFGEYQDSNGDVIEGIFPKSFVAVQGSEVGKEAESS

T14: Cdc25, P04821
T14 sequence (P04821 50-136, looked up): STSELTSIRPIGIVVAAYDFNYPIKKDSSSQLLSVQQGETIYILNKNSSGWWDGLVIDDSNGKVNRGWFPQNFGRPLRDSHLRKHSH

T15: Myo5, Q04439
T15 sequence (Q04439 1072-1160, looked up): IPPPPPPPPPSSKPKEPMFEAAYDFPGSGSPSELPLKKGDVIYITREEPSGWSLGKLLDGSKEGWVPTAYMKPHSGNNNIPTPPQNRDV

T16: Lsb1, P53281
T16 sequence (P53281 45-122, looked up): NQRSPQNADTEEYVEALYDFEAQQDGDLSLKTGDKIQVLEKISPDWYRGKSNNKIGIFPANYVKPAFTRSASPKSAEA

T17: Sla1-2, P32790
T17 sequence (P32790 60-140, looked up): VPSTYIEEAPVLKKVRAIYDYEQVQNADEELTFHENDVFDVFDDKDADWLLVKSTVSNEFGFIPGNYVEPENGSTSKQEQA

T18: Nbp2, Q12163
T18 sequence (Q12163 103-180, looked up): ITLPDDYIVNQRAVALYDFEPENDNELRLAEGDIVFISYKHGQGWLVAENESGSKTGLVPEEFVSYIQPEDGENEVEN

T19: Hof1, Q05080
T19 sequence (Q05080 590-669, looked up): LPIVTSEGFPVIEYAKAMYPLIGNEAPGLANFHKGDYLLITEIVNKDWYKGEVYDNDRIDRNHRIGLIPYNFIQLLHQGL

T20: Cyk3, Q07533
T20 sequence (Q07533 1-83, looked up): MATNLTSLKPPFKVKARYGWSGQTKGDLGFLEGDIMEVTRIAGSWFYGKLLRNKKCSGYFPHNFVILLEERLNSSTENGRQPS

T21: Lsb4, P32793
T21 sequence (P32793 402-468, looked up): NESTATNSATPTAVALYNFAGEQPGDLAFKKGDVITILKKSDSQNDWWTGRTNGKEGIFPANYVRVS


Key:
Experiment in all cases: SPOT array
Sla1-3, P32790 = target: T1, Sla1-3, P32790; settings: median of control spots 5475
Boi1, P38041 = target: T2, Boi1, P38041; settings: median of control spots 1162
Lsb3, P43603 = target: T3, Lsb3, P43603; settings: median of control spots 406
Sho1, P40073 = settings: median of control spots 1148
Chain of Sho1, P40073 (P40073 287-367): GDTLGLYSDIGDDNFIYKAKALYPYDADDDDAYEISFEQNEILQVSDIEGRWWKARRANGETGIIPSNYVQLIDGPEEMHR

Pex13, P80667 = target: T4, Pex13, P80667; settings: median of control spots 1341
Abp1, P15891 = target: T5, Abp1, P15891; settings: median of control spots 935
Hse1, P38753 = target: T6, Hse1, P38753; settings: median of control spots 1727
Myo3, P36006 = settings: median of control spots 468
Pin3, Q06449 = target: T7, Pin3, Q06449; settings: median of control spots 2171
Bud14, P27637 = target: T8, Bud14, P27637; settings: median of control spots 956
Bzz1-1, P38822 = target: T9, Bzz1-1, P38822; settings: median of control spots 4446
Bzz1-2, P38822 = target: T10, Bzz1-2, P38822; settings: median of control spots 4538
Fus1, P11710 = target: T11, Fus1, P11710; settings: median of control spots 1200
Bem1-2, P29366 = settings: median of control spots 4347
Chain of Bem1-2, P29366 (P29366 139-227): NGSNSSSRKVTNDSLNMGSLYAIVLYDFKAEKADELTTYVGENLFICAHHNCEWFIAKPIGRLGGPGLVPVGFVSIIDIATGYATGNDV

Boi2, P39969 = target: T12, Boi2, P39969; settings: median of control spots 1161
Bbc1, P47068 = target: T13, Bbc1, P47068; settings: median of control spots 796
Cdc25, P04821 = target: T14, Cdc25, P04821; settings: median of control spots 969
Myo5, Q04439 = target: T15, Myo5, Q04439; settings: median of control spots 471
Lsb1, P53281 = target: T16, Lsb1, P53281; settings: median of control spots 388
GST = settings: median of control spots 978
Sla1-2, P32790 = target: T17, Sla1-2, P32790; settings: median of control spots 712
Nbp2, Q12163 = target: T18, Nbp2, Q12163; settings: median of control spots 357
Hof1, Q05080 = target: T19, Hof1, Q05080; settings: median of control spots 4086
Cyk3, Q07533 = target: T20, Cyk3, Q07533; settings: median of control spots 1451
Bem1-1, P29366 = settings: median of control spots 4282
Chain of Bem1-1, P29366 (P29366 55-141): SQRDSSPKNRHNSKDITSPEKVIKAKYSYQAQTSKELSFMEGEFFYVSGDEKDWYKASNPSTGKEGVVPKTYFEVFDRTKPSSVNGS

Rvs167, P39743 = settings: median of control spots 2707
Chain of Rvs167, P39743 (P39743 419-482): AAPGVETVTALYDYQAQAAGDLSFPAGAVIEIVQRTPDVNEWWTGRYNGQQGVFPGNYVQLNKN

Lsb4, P32793 = target: T21, Lsb4, P32793; settings: median of control spots 397

| Binder | SPOT intensity (Sla1-3, P32790) | SPOT intensity (Boi1, P38041) | SPOT intensity (Lsb3, P43603) | SPOT intensity (Sho1, P40073) | SPOT intensity (Pex13, P80667) | SPOT intensity (Abp1, P15891) | SPOT intensity (Hse1, P38753) | SPOT intensity (Myo3, P36006) | SPOT intensity (Pin3, Q06449) | SPOT intensity (Bud14, P27637) | SPOT intensity (Bzz1-1, P38822) | SPOT intensity (Bzz1-2, P38822) | SPOT intensity (Fus1, P11710) | SPOT intensity (Bem1-2, P29366) | SPOT intensity (Boi2, P39969) | SPOT intensity (Bbc1, P47068) | SPOT intensity (Cdc25, P04821) | SPOT intensity (Myo5, Q04439) | SPOT intensity (Lsb1, P53281) | SPOT intensity (GST) | other results |
| --- | --- | --- | --- | --- | --- | --- | --- | --- | --- | --- | --- | --- | --- | --- | --- | --- | --- | --- | --- | --- | --- |
| MTKTPETSPPKRPMG | 0 | 0 | 34 | 5 | 8 | 75 | 0 | 455 | 24 | 0 | 3 | 4 | 0 | 3 | 0 | 0 | 2 | 499 | 3 | 0 | SPOT intensity (Sla1-2, P32790): 2; SPOT intensity (Nbp2, Q12163): 0; SPOT intensity (Hof1, Q05080): 16; SPOT intensity (Cyk3, Q07533): 0; SPOT intensity (Bem1-1, P29366): 0; SPOT intensity (Rvs167, P39743): 0; SPOT intensity (Lsb4, P32793): 36 |
| NLKKRPPTAPQRKIS | 161 | 15 | 45 | 229 | 13 | 564 | 157 | 20 | 7 | 25 | 22 | 324 | 8 | 51 | 0 | 31 | 203 | 3 | 8 | 2 | SPOT intensity (Sla1-2, P32790): 3; SPOT intensity (Nbp2, Q12163): 48; SPOT intensity (Hof1, Q05080): 28; SPOT intensity (Cyk3, Q07533): 2; SPOT intensity (Bem1-1, P29366): 0; SPOT intensity (Rvs167, P39743): 18; SPOT intensity (Lsb4, P32793): 141 |
| KKEKKPPKIPKKVYT | 12 | 0 | 0 | 16 | 0 | 161 | 12 | 0 | 1 | 0 | 0 | 18 | 3 | 4 | 3 | 0 | 3 | 0 | 0 | 3 | SPOT intensity (Sla1-2, P32790): 0; SPOT intensity (Nbp2, Q12163): 0; SPOT intensity (Hof1, Q05080): 4; SPOT intensity (Cyk3, Q07533): 1; SPOT intensity (Bem1-1, P29366): 1; SPOT intensity (Rvs167, P39743): 0; SPOT intensity (Lsb4, P32793): 0 |

More lines, main results first:

| SPOT intensity (Sla1-3, P32790) | SPOT intensity (Boi1, P38041) | SPOT intensity (Lsb3, P43603) | SPOT intensity (Sho1, P40073) | SPOT intensity (Pex13, P80667) | SPOT intensity (Abp1, P15891) | SPOT intensity (Hse1, P38753) | SPOT intensity (Myo3, P36006) | SPOT intensity (Pin3, Q06449) | SPOT intensity (Bud14, P27637) | SPOT intensity (Bzz1-1, P38822) | SPOT intensity (Bzz1-2, P38822) | SPOT intensity (Fus1, P11710) | SPOT intensity (Bem1-2, P29366) | SPOT intensity (Boi2, P39969) | SPOT intensity (Bbc1, P47068) | SPOT intensity (Cdc25, P04821) | SPOT intensity (Myo5, Q04439) | SPOT intensity (Lsb1, P53281) | SPOT intensity (GST) | Binder | other results |
| --- | --- | --- | --- | --- | --- | --- | --- | --- | --- | --- | --- | --- | --- | --- | --- | --- | --- | --- | --- | --- | --- |
| 0 | 0 | 4 | 38 | 5 | 617 | 6 | 2 | 3 | 0 | 0 | 9 | 0 | 5 | 0 | 1 | 3 | 1 | 0 | 1 | KTKQQKPAIPQKKSF | SPOT intensity (Sla1-2, P32790): 0; SPOT intensity (Nbp2, Q12163): 0; SPOT intensity (Hof1, Q05080): 0; SPOT intensity (Cyk3, Q07533): 0; SPOT intensity (Bem1-1, P29366): 0; SPOT intensity (Rvs167, P39743): 4; SPOT intensity (Lsb4, P32793): 2 |
| 0 | 0 | 0 | 4 | 2 | 239 | 0 | 0 | 0 | 0 | 0 | 0 | 1 | 0 | 1 | 0 | 0 | 0 | 0 | 0 | AAHKTKPSIPPKKVE | SPOT intensity (Sla1-2, P32790): 0; SPOT intensity (Nbp2, Q12163): 0; SPOT intensity (Hof1, Q05080): 0; SPOT intensity (Cyk3, Q07533): 0; SPOT intensity (Bem1-1, P29366): 0; SPOT intensity (Rvs167, P39743): 0; SPOT intensity (Lsb4, P32793): 0 |
| 0 | 0 | 2 | 0 | 7 | 7 | 0 | 502 | 21 | 0 | 0 | 0 | 0 | 0 | 3 | 0 | 0 | 515 | 0 | 0 | QTREPNEPPPPSPAM | SPOT intensity (Sla1-2, P32790): 0; SPOT intensity (Nbp2, Q12163): 0; SPOT intensity (Hof1, Q05080): 0; SPOT intensity (Cyk3, Q07533): 1; SPOT intensity (Bem1-1, P29366): 1; SPOT intensity (Rvs167, P39743): 4; SPOT intensity (Lsb4, P32793): 13 |
